Results from patent US20250250587A1 (published 2025).

Target: T1, Neo12 (neoantigen; source protein not named) peptide on HLA-A*02:01 (human)
T1 peptide: YLTHRVDVI
Test: multimer staining

binding result: recognises
B1: Neo12 neoTCR (TCR, V domains shown)
Valpha: QKEVEQDPGPLSVPEGAIVSLNCTYSNSAFQYFMWYRQYSRKGPELLMYTYSSGNKEDGRFTAQVDKSSKYISLFIRDSQPSDSATYLCAMSEDYKLSFGAGTTVTVRA
Vbeta: ETGVTQTPRHLVMGMTNKKSLKCEQHLGHNAMYWYKQSAKKPLELMFVYSLEERVENNSVPSRFSPECPNSSHLFLHLHTLQPEDSALYLCASSQSRGAQQYFGPGTRLTVT
